Measured values taken from article PMC9331050.

Assays:
[1] = target: CreFH1, frataxin homolog from Chlamydomonas reinhardtii, mature form without the mitochondrial transit peptide (Chlamydomonas reinhardtii); experiment: native MS; ESI-TOF MS of recombinant CreFH1 after 3 h with Cu2+, Fe3+, Zn2+ or water; carrier 5:95 acetonitrile:ammonium acetate/ammonia 15 mM, pH 7.0; monomer to dimer
[2] = target: CreFH1, frataxin homolog from Chlamydomonas reinhardtii, mature form without the mitochondrial transit peptide (Chlamydomonas reinhardtii); experiment: native gel or EMSA; 8% native PAGE of purified CreFH1 incubated 1 or 3 h with water (control) or 33 uM Fe3+, Cu2+ or Zn2+; 3 ug protein a lane; Coomassie stain, densitometry; monomer to dimer

CreFH1, frataxin homolog from Chlamydomonas reinhardtii, mature form without the mitochondrial transit peptide (natural protein)
stoichiometry N [1]: 2
percent of protein as dimer, with Zn2+ or Fe3+ [2]: 22%
percent of total protein as dimer, with Cu2+ [2]: 40%
stoichiometry N [2]: 2
